In the DeepSol protein solubility set:

test: soluble on expression in E. coli; label from the status in PepcDB or PDB records

Which “soluble on expression in E. coli” value does the source give for “GPGSMDAVRAMDYTDIYLRPRKKESVSPQEPLRSAQVDSAAESRVEWMLKGAFSVQQLLDRVEELSARVCMFDEKMVNLTKLVKLAQGIQEEKEADIRFQQQELLSRLKRLEQACARLEDMETFKQFIISKVQETLEDAHQAFLSDLAKIRADGEEQAARTKQRIENTVSDVRRDVEERIASLWGEAEQKDLSRQEAQDTLREKLRLVESSLRDLEMSVGRDYSRVPPLQEKIDGITQSLSSLEQKVDKTAGTVVTLGNEAKQARALLMEEIETTRQWVTRNLQRVKQHVEVISSDVEQLHNGRADLSARISRISCQADMECKKLRSQLSQKALVADALDNLVQKEFYKVEDVALRHQSLRTEVGAVKDV” here?
The value was “not soluble”.

With “GIDAAEYVLYGGKGGVGKTTCAAATALASARDDTATLVVSTDPAHSLSDTLDADIPATPTRIREDIPLYAAEIDPEAAVGEGPLGVEEDALGGVGELLGGDGMFGGGAGGAAGAGQAEDPIGGEEGLLGGSMPGADEAAALRLLLDYVDDDRFDRVVIDTAPTGHTLRLLELPETMDSMVGKILQLRERFSGMMDNLTGMFGDDQDVDAEAGIEDLQELSDRIEHLRGILQDPQRTDFRIVMVPEELSVVESERLLAQLGEFNIPVSTVVVNRVMQDPSEVLGEDVDIAGPNHADCEFCARRWQVQQDALARSQDMFRGHDVRRVPLFAEEVRGERLLSVVAACLD” as the sequence, how does the “soluble on expression in E. coli” value read?
The value was “not soluble”.

Which “soluble on expression in E. coli” value does the source give for “MGSDKIHHHHHHMRGPLRGKVSFPWGLRPLPMLVYHEFGRSMTRPVIGIIGNHHLINDQYATHAGGIMNSEAVAEVSGGLPLIVPSNPAFVDLDDLMATCAGFVFTGGRPNVHPEEYGEDYTDAHGTMDRDRDALTLPLIRACVERGQPILGLCRGFQEVNVAMGGSLYPEIRDLPGRMNHRMPPDGTIEEKFELRHTVTFTEGGPFHRLMGAQQVRTNTLHGQGIKQAGARVIIDGHAEDGTPEAIYIADAPGFTLSVQWHPEYRAAEDPVSRPLFAAFGEAARAWSIGKRPVKAGEVA” here?
Its value is “not soluble”.

Which “soluble on expression in E. coli” value does the source give for “MTFLKEYVIVSGASGFIGKHLLEALKKSGISVVAITRDVIKNNSNALANVRWCSWDNIELLVEELSIDSALIGIIHLATEYGHKTSSLINIEDANVIKPLKLLDLAIKYRADIFLNTDSFFAKKDFNYQHMRPYIITKRHFDEIGHYYANMHDISFVNMRLEHVYGPGDGENKFIPYIIDCLNKKQSCVKCTTGEQIRDFIFVDDVVNAYLTILENRKEVPSYTEYQVGTGAGVSLKDFLVYLQNTMMPGSSSIFEFGAIEQRDNEIMFSVANNKNLKAMGWKPNFDYKKGIEELLKRL” here?
The value was “not soluble”.

Which “soluble on expression in E. coli” value does the source give for “MAHHHHHHMQDHMFAKSGVPANGAGLGQNYYTRDLITEVPTIIQIVPVSSEALATQRSPPKGTSDTFKISLDDVEPTAGWLSDRNNASLDICFMHSFGKCYGKIREKDPRTCHQIHVKRNVLDNLRKYYTNPQRNYFCRTMKANVTEKFAQVLSLLARRRIGLRYLEFRTEDIEVTAGSTEYEVQYRLWLVSDVEPQSRSRAQAANILTDNFISSSNLCWDFALTGRCCKGASCPDLHGHVAKALTKDRYVKAALAEMGKKDSLVPPTETTQPGKTPRVCQPSTSAPQQFPPPPPMPQQCASFIVSSPISPPYCFSSLPAASGMSAPSPNPTLAAFPLDMSSLQGTPCFLVDKGSDNVFRLITQSQFASFGNDAS” here?
Its value is “not soluble”.

With “MKSMSEYLNLLKEAIQNVVDGGWHETKRKGNTGIGKTFEDLLEKEEDNLDAPDFHDIEIKTHETAAKSLLTLFTKSPTNPRGANTMLRNRYGKKDEYGNNILHQTVSGNRKTNSNSYNYDFKIDIDWESQVVRLEVFDKQDIMIDNSVYWSFDSLQNQLDKKLKYIAVISAESKIENEKKYYKYNSANLFTDLTVQSLCRGIENGDIKVDIRIGAYHSGKKKGKTHDHGTAFRINMEKLLEYGEVKVIV” as the sequence, how does the “soluble on expression in E. coli” value read?
The value was “soluble”.

For “MGSDKIHHHHHHMNRLIRTGVLGFLVWLAGCGHAPVQEKPTPEELKQRALQSAKIHTELAGQYYHRGQYRVAIEEAEIALQKKTDYAPAYNMLGLVYMDLQEDDRAEWNFERGLGITPNDPDIRNNFGWFLCQRKPDGIEQAIGHFMAAVRDPLYETPERTYTNAGLCVLKQNDFERAQSYFQEALVIRPGYPLARLGLVELDFSRGEVKKAWAAINRYLQTYPPAPGSLWLAVRIARANGDVNAETNYAFQLQKRFPDSREARESRAGRLNHER”, which “soluble on expression in E. coli” value is on record?
The value was “not soluble”.

Which “soluble on expression in E. coli” value does the source give for “MPEAWIVEAVRTPIGKHGGALASVRPDDLLAHALSVLVDRSGVPKEEVEDVYAGCANQAGEDNRNVARMALLLAGFPVEVAGCTVNRLCGSGLEAVAQAARAIWAGEGKVYIGSGVESMSRAPYAVPKPERGFPTGNLVMYDTTLGWRFVNPKMQALYGTESMGETAENLAEMYGIRREEQDRFALLSHQKAVRAWEEGRFQDEVVPVPVKRGKEEILVEQDEGPRRDTSLEKLAALRPVFREGGTVTAGNSSPLNDGAAAVLLVSDDYAKAHGLRPLARVRAIAVAGVPPRIMGIGPVPATRKALERAGLSFSDLGLIELNEAFAAQALAVLREWSLSMEDQRLNPNGGAIALGHPLGASGARILTTLVHEMRRRKVQFGLATMCIGVGQGIAVVVEGMG” here?
Its value is “soluble”.

For “MSKTLKIAIDAGHGPQTPGKRCPDDSMREFHFNSVVARYVRDGLAQYEGVQTMFTHADDGSRDVPLQERTDRANAWGADVFVSIHANASGNGWSDARGIETYVYTTRPAQAVKLAEAVQRNLIKETGLKDRGVKAENFHVLRETKMTAILCECGFMTNREEAELLKSDAYRRKCAKAIVAGIAEVYDLTLKQQAHASEPTYSGKFKDVPDGHYAKGATERLAEKGIMNGIGNGLFGFGKPITREDAAVIVDRAITYLEQKISQK”, which “soluble on expression in E. coli” value is on record?
Its value is “not soluble”.

For “MDSHVGEVDIFQQCKYIHEVELVNMKLQMRILETHIETKDRLLRNLEDIIDEQESRIANMEDFIQGRATSYTNRSNMLKGISVLSLDFGNLSEENLRLKNALSQMQKVARVNELLETDEDYESDMTSNEDRFALSRDSSCSVPRSVSPQPTGDVIKPYPQMVQSMREEGHWKKLQRCAEELKTEKDELKRLALDTKDAFNVCMAEMRMMLTSKTTDFFRVLIERYKAEMEKRKQLHNQLVELNGNIRVFYRIRPQLASETDNQKPVVVIDEMDNGVVHVSNTTGTRKTSAGADKVIPTDFSQDQIFNEVSPIITSCIDGYNVCIFAYGHTGSGKTYTMDGPVTMPGINQRAIMQLFETAKERTGDIKYDIKVAMMEIYNEKIRDLLNTSNTNLAIRQTEEGRSSIPGLEEVSVNSAEEVTETLARGRKNKAVAATEANIESSRSHVIVRVLVSATNLITKATTVGRLNLVDLAGSERVSQTNATGQLLKEAQAINKSLSELGNVVLALRQNQKHIPFRNCQLTRILEDSLNGDSKTLVIVHLSPDAKSLNESISSVNFAEKIGQVFTKSGTMKREPTRRSMTGISSGQRREIPASPRK”, which “soluble on expression in E. coli” value is on record?
The value was “soluble”.

With “MGSDKIHHHHHHMIRDARVLRAGFVPREVEHRDAEVNHLSSVLEPITNGEPADTAIVTGPSGAGKTCISQFVTERLREEVLDVETTYVNCWRNYTRFRTLYQILDDLGATIDIHRQSTPHDELVDRLQQHDGPRTVVILDEVDQLEDPSVIYDLHSLPQFAIICIANKEEELFSRVDDRLVSRLRSSEHVRMDKYHDEQLYDILSARAKWGLDEDVITDDQLYRIADAAAGDARLAIGILRTAAGKADRENHERITDDILLNAAEDARAQIKQKSLDSLTPHQRVVYDIVREHGPIGPSEIHERYSEDVDDPRTKRTIRTYLSKMEQYNLLEAEGTSRDREYSLVDSAAASPMQ” as the sequence, how does the “soluble on expression in E. coli” value read?
Its value is “not soluble”.

With “MAQMTMVQAITDALRIELKNDPNVLIFGEDVGVNGGVFRATEGLQAEFGEDRVFDTPLAESGIGGLAIGLALQGFRPVPEIQFFGFVYEVMDSICGQMARIRYRTGGRYHMPITIRSPFGGGVHTPELHSDSLEGLVAQQPGLKVVIPSTPYDAKGLLISAIRDNDPVIFLEHLKLYRSFRQEVPEGEYTIPIGKADIKREGKDITIIAYGAMVHESLKAAAELEKEGISAEVVDLRTVQPLDIETIIGSVEKTGRAIVVQEAQRQAGIAANVVAEINERAILSLEAPVLRVAAPDTVYPFAQAESVWLPNFKDVIETAKKVMNF” as the sequence, how does the “soluble on expression in E. coli” value read?
The value was “soluble”.

Which “soluble on expression in E. coli” value does the source give for “MSDILKCIGCGAPLQSEDKNKPGFVPEHNMFRDDVICRRCFRLKNYNEVQDVGLESEDFLKLLSGLADKKGIVVNVVDVFDFEGSFINAVKRIVGNKKIILAANKLDLLPKQINKRRVKEWLKRTARKYGLEADDVVLISAEKGWGIDDLLSSIANIRENEDVYIVGTTNVGKSTLINKLIEASVGEKDVVTTSRFPGTTLDMIDIPLDESSFMYDTPGIIQDHQMTHLVSEKELKIIMPKKEIKQRVYQLNEAQTLFFGGLARIDYVSGGKRPLVCFFSNDLNIHRTKTEKANDLWRNQLGDLLTPPGNPQNFDLNELKAVRLETGKEKRDVMISGLGFITIGPGAKVIVRVPKNVDVVLRNSILLEHHHHHH” here?
The value was “soluble”.

For “MGSDKIHHHHHHMKRFNIIITLSATLGLFSCELDKMPMDQVSDAVFWQKPADFELAANDFYFGLQEVSQYIDMNSDIAFGSGTNDVSDGSYLAPVNSDDWDNPWKFVQSTSYLLKKAEESGLSDEEIGRWKAEAHFFRAYNYWKLVKTYGGVPKIDIPLNTSSEELYTPRSSQQEIIDFIIEDLDKAIPLLPKQSGLTAEELGRTTQGAALALKARAALFEGTWQKYHGMADAGKYLDLAIQAAQAIVDSKEYELYREKGELSYKYLHILEGDDSKEVLLARRYYKLRATHNWTRELLLGAMVPTKNLADVYLCTDGLPIDKSKLFKGFQTQTSEFENRDSRMAQTFVVPGSEIFSEGGGWATVEPGFIGNNSTRTGYMIRKFMDETLDAVQFIGEYDFKEFRYGEVLLILAEALYEKNGQITDEQLDLTINDLRNRANMPRLTNAFVATNGLNMQEEIRRERTVELAFEGYRRDDLRRWGTAETVLPLAIRGVKFVGTEYQQKFPELVIGQDIQVDSEGFIIAQPASARKFQTPKHWLSPIPLQQVQLSKGTLEQNPGW”, which “soluble on expression in E. coli” value is on record?
Its value is “not soluble”.

Which “soluble on expression in E. coli” value does the source give for “GSHMVMNTHPYQSEAVSDVWSLSKTSMTFQPKKASLQPLTISLDELFSSRGEFISVGGNGRMSHKEAILLGLRYKKLYNQARVKYSL” here?
Its value is “soluble”.

Which “soluble on expression in E. coli” value does the source give for “MPCRLTRLFGIEFPIIQAPMAGVQGSALAIAVSEAGGLGSLPCAMLSLEALEAELTAIRSQTAKPINVNFFCHREPVAQAAKQAAWLEQLAPYFAEFNLDPNAQPAGAQRTPYSKAQAEVLAKFKPEVVSFHFGLPDEELLLEIKSWGSKVISTATTVEEALWLEARGADAIIAQGLEAGGHRGHFLSEDLTEQLGTFSLLPQIIAAVEIPVIAAGGIVDATTVRAAMTMGASAVQVGTAYLLCPECNTSAIHREALQSDAAQHTALTNLFSGRPARGIVNRFMAEMGPMNEAVPDFPLASSAVAGLRTAAERLGFWDFSPLWCGQNASGCRAIPAADLTRSFVLSLPSSCVEPQEKSG” here?
Its value is “soluble”.

With “IDKKLTTLADLFRPPIDLMHKGSFETAKECGQMQNKWLMINIQNVQDFACQCLNRDVWSNEAVKNIIREHFIFWQVYHDSEEGQRYIQFYKLGDFPYVSILDPRTGQKLVEWHQLDVSSFLDQVTGFLGEHGQLDGLSSS” as the sequence, how does the “soluble on expression in E. coli” value read?
The value was “soluble”.

For “MGSDKIHHHHHHGASEVMWKDFRNEKTIDTVYLGSSFSQVTFNPYIIDEKLGWKSFNMGTPAQPLDQSYVALQNAIKEKKIKRAVLAYGIPTMEDTQNDNARITFAHAMKYGCSWKQKVKMDWDFITDKENINTESSINYLFPWISNSIEWTKTAIENNIKLKKHNNDATENMKTTEWYASYIGKGYAPILTGGFDYKNAITDNTKANYNCIISETAYCKLEKICRLCKDNEVEFIIVNTPKAPYDISMYGADEYFAINSRIEEICTKYGFSYYDFNLIKPQIFQICPEYLNNYEHLSKAGSEAFCNAFSNFIRLHDSGECMTNYFYNEEEYLDSVKDIVQCIKE”, which “soluble on expression in E. coli” value is on record?
Its value is “not soluble”.

For “MAHHHHHHMSSEHWVFFGLPPFFTEQHSSATLDRQCTLWSNLLLDHAIYHAQRTAGGDTNALLRFYTTQSDIFYNPAINKRLSPEGAHTMLQSLVARHPNHVVIVSDGGPRDFSVLVCTTEDGFKGMEETLLRYILDHGEVQTTAMLSKKGTVMTFDELASGAALGYGQTRSAYLARFSSAAVPVADVGRLSEEQAIRMYLHALNRRPVSAMRPFKVTLFNLDGTATQPYQGVKFGGE”, which “soluble on expression in E. coli” value is on record?
The value was “soluble”.
